Measured values reported in patent US7018836 (UNIVERSITY OF IOWA RESEARCH FOUNDATION, dated 2006).

Target: T1, HIS-tagged human P-TEFb small subunit PITALRE (human, UniProt P50750 1-372)
T1 construct: also called HBS; HIS-tagged human kinase subunit (PITALRE)
Experiment: co-expression in baculovirus, co-recovery with the HIS-tagged small subunit from a nickel column

T1 sequence (P50750 whole entry): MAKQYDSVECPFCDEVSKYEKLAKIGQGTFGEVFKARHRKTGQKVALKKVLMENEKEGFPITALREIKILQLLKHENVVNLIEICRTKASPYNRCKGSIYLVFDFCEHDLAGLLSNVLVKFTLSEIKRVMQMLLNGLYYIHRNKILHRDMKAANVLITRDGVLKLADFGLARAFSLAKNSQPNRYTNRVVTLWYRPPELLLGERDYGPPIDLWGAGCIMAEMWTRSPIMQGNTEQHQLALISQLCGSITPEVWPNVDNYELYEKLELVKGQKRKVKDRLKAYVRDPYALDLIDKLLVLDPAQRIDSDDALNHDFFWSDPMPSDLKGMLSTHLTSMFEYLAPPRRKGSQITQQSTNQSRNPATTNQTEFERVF

B1: Drosophila P-TEFb small subunit with a HIS-tag at the carboxyl-terminus (enzyme)
chain: MAHMSHMLQQPSGSTPSNVGSSSSRTMSLMEKQKYIEDYDFPYCDESNKYEKVAKIGQGTFGEVFKAREKKGNKKFVAMKKVLMDNEKEGFPITALREIRILQLLKHENVVNLIEICRTKATATNGYRSTFYLVFDFCEHDLAGLLSNMNVKFSLGEIKKVMQQLLNGLYYIHSNKILHRDMKAANVLITKHGILKLADFGLARAFSIPKNESKNRYTNRVVTLWYRPPELLLGDRNYGPPVDMWGAGCIMAEMWTRSPIMQGNTEQQQLTFISQLCGSFTPDVWPGVEELELYKSIELPKNQKRRVKERLRPYVKDQTGCDLLDKLLTLDPKKRIDADTALNHDFFWTDPMPSDLSKMLSQHLQSMFEYLAQPRRSNQMRNYHQQLTTMNQKPQDNSMIDRVW
notes: also called DBS; Drosophila P-TEFb small (kinase) subunit; not shown: HIS-tag added to the carboxyl-terminus
Does B1 bind?
Result: no binding
